Residue numbers refer to the chain shown, from its start. Numbers in names are those of the source.
T1: human IL1RAP (human, UniProt Q9NPH3 21-367, limits assumed, biotinylated in the ELISA screens (site not stated))
T1 construct: also called huIL1RAP; IL1RAP antigen
T1 sequence (looked up): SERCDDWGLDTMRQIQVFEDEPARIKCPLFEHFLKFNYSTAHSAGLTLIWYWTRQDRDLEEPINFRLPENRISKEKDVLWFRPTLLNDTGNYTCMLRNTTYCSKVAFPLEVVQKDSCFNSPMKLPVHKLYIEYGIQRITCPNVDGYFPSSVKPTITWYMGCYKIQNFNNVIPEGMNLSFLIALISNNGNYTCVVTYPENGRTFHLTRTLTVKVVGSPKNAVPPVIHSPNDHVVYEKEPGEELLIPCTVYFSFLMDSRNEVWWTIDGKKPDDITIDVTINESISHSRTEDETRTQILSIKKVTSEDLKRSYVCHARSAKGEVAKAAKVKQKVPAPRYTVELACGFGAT

B1: CAN04 (antibody, INN chains, looked up, V domains shown)
VH: QVQLVQSGAEVKKPGSSVKVSCKASGYAFTSSWMNWVRQAPGQGLEWMGRIYPGDGNTHYAQKFQGRVTLTADKSTSTAYMELSSLRSEDTAVYYCGEGYLDPMDYWGQGTLVTVSS
VL: DIQMTQSPSSLSASVGDRVTITCQASQGINNYLNWYQQKPGKAPKLLIHYTSGLHAGVPSRFSGSGSGTDYTLTISSLEPEDVATYYCQQYSILPWTFGGGTKVEIK
B2: GO11 chimeric IgG, heavy chain point mutant VH-D56G (antibody, V domains shown)
VH: QVHLQQSGPELVRPGTSVKISCEASGYIFLTYWMNWVKQRPGQGLEWIGQIFPASGSTYYNEMFKDKARFTVDKSSSTAYMQFSSLTSEDTAVYFCARSGPYSYYAGGYALDYWGQGTSVTVSS
VL: DIQMTQSPASLSASVGETVTITCRTSENINSYLAWYQQKQGKSPQLLVHYAKTLAEGVPSRFSGSGSGTQFSLKINSLKPEDFGSYYCQHHYGTSLTFGAGTKLELK
notes: Heavy chain mutant paired with the parental chimeric light chain; IgG backbone, expressed in CHO-E
B3: VK-Y50A (antibody, V domains shown)
VH: B2 VH with G56D
VL: DIQMTQSPASLSASVGETVTITCRTSENINSYLAWYQQKQGKSPQLLVHAAKTLAEGVPSRFSGSGSGTQFSLKINSLKPEDFGSYYCQHHYGTSLTFGAGTKLELKR
notes: germlining point mutant, paired with the parental chimeric heavy chain; also called GO11 chimeric IgG, light chain point mutant Y50A; copies: 2 + 2
B4: VH-Y27G (antibody, V domains shown)
VH: B2 VH with Y27G, G56D
VL: B3 VL with A50Y
notes: germlining point mutant, paired with the parental chimeric light chain; also called GO11 chimeric IgG, heavy chain point mutant Y27G; copies: 2 + 2
B5: GO11 chimeric IgG, heavy chain point mutant VH-N61A (antibody, V domains shown)
VH: B2 VH with G56D, N61A
VL: B2 VL
notes: as for B2
B6: VH-S57I (antibody, V domains shown)
VH: B2 VH with G56D, S57I
VL: B3 VL with A50Y
notes: germlining point mutant, paired with the parental chimeric light chain; also called GO11 chimeric IgG, heavy chain point mutant S57I; copies: 2 + 2
B7: VH-F52I (antibody, V domains shown)
VH: B2 VH with F52I, G56D
VL: B3 VL with A50Y
notes: germlining point mutant, paired with the parental chimeric light chain; also called GO11 chimeric IgG, heavy chain point mutant F52I; copies: 2 + 2
B8: GO11 chimeric IgG, light chain point mutant VK-N30S (antibody, V domains shown)
VH: B2 VH with G56D
VL: B2 VL with N30S
notes: Light chain mutant paired with the parental chimeric heavy chain; IgG backbone, expressed in CHO-E
B9: VH-S55L (antibody, V domains shown)
VH: B2 VH with S55L, G56D
VL: B3 VL with A50Y
notes: germlining point mutant, paired with the parental chimeric light chain; also called GO11 chimeric IgG, heavy chain point mutant S55L; copies: 2 + 2
B10: GO11 chimeric IgG, heavy chain point mutant VH-L30S (antibody, V domains shown)
VH: B2 VH with L30S, G56D
VL: B2 VL
notes: as for B2
B11: VK-S95P (antibody, V domains shown)
VH: B2 VH with G56D
VL: B3 VL with A50Y, S95P
notes: germlining point mutant, paired with the parental chimeric heavy chain; also called GO11 chimeric IgG, light chain point mutant S95P; copies: 2 + 2
B12: VK-A55Q (antibody, V domains shown)
VH: B2 VH with G56D
VL: B3 VL with A50Y, A55Q
notes: germlining point mutant, paired with the parental chimeric heavy chain; also called GO11 chimeric IgG, light chain point mutant A55Q; copies: 2 + 2
B13: VK-H90Q (antibody, V domains shown)
VH: B2 VH with G56D
VL: B3 VL with A50Y, H90Q
notes: germlining point mutant, paired with the parental chimeric heavy chain; also called GO11 chimeric IgG, light chain point mutant H90Q; copies: 2 + 2
B14: GO11 chimeric IgG, heavy chain point mutant VH-I28T (antibody, V domains shown)
VH: B2 VH with I28T, G56D
VL: B2 VL
notes: as for B2
B15: GO11 chimeric IgG, light chain point mutant VK-E27Q (antibody, V domains shown)
VH: B2 VH with G56D
VL: B2 VL with E27Q
notes: as for B8
B16: GO11 chimeric IgG, heavy chain point mutant VH-K65Q (antibody, V domains shown)
VH: B2 VH with G56D, K65Q
VL: B2 VL
notes: as for B2
B17: GO11 chimeric IgG, heavy chain point mutant VH-E62Q (antibody, V domains shown)
VH: B2 VH with G56D, E62Q
VL: B2 VL
notes: as for B2
B18: GO11 chimeric IgG, heavy chain point mutant VH-M63K (antibody, V domains shown)
VH: B2 VH with G56D, M63K
VL: B2 VL
notes: as for B2
B19: VH-W33Y (antibody, V domains shown)
VH: B2 VH with W33Y, G56D
VL: B3 VL with A50Y
notes: germlining point mutant, paired with the parental chimeric light chain; also called GO11 chimeric IgG, heavy chain point mutant W33Y; copies: 2 + 2
B20: GO11 chimeric IgG, heavy chain point mutant VH-M34I (antibody, V domains shown)
VH: B2 VH with M34I, G56D
VL: B2 VL
notes: as for B2
B21: GO11 chimeric IgG, light chain point mutant VK-N28S (antibody, V domains shown)
VH: B2 VH with G56D
VL: B2 VL with N28S
notes: as for B8
B22: VH-Q50R (antibody, V domains shown)
VH: B2 VH with Q50R, G56D
VL: B3 VL with A50Y
notes: germlining point mutant, paired with the parental chimeric light chain; also called GO11 chimeric IgG, heavy chain point mutant Q50R; copies: 2 + 2
B23: GO11 chimeric IgG, light chain point mutant VK-K52S (antibody, V domains shown)
VH: B2 VH with G56D
VL: B2 VL with K52S
notes: as for B8
B24: GO11 chimeric IgG, light chain point mutant VK-T25A (antibody, V domains shown)
VH: B2 VH with G56D
VL: B2 VL with T25A
notes: as for B8
B25: VK-E56S (antibody, V domains shown)
VH: B2 VH with G56D
VL: B3 VL with A50Y, E56S
notes: germlining point mutant, paired with the parental chimeric heavy chain; also called GO11 chimeric IgG, light chain point mutant E56S; copies: 2 + 2
B26: GO11 chimeric IgG, heavy chain point mutant VH-D66G (antibody, V domains shown)
VH: B2 VH with G56D, D66G
VL: B2 VL
notes: as for B2
B27: VK-G93S (antibody, V domains shown)
VH: B2 VH with G56D
VL: B3 VL with A50Y, G93S
notes: germlining point mutant, paired with the parental chimeric heavy chain; also called GO11 chimeric IgG, light chain point mutant G93S; copies: 2 + 2
B28: VK-H91S (antibody, V domains shown)
VH: B2 VH with G56D
VL: B3 VL with A50Y, H91S
notes: germlining point mutant, paired with the parental chimeric heavy chain; also called GO11 chimeric IgG, light chain point mutant H91S; copies: 2 + 2
B29: GO11 chimeric IgG, heavy chain point mutant VH-N35S (antibody, V domains shown)
VH: B2 VH with N35S, G56D
VL: B2 VL
notes: as for B2
B30: GO11 chimeric IgG, heavy chain point mutant VH-T58A (antibody, V domains shown)
VH: B2 VH with G56D, T58A
VL: B2 VL
notes: as for B2

Legend:
[1] = target: human IL1RAP on cells (human) (UniProt Q9NPH3); assay: cell-based or functional assay
human IL1RAP [2] = target: T1, human IL1RAP; assay: ELISA of point mutant IgG (heavy chain mutant with the parental chimeric light chain, CHO-E expression), one bar each, concentration not given
Excerpt: (§1) For light chain 13 variants (T25A, E27Q, N28S, N30S, Y50A, K52S, T53Y, A55Q, E56S, H90Q, H91S, G93S and S95P) and 19 heavy chain variants (Y27G, I28T, L30S, T31S, W33Y, M34I, N35S, Q50R, F521, A541, S55L, D56G, S57I, T58A, N61A, E62Q, M63K, K65Q and D66G) were generated separately in the vector pTT5 (See FIG. 3A/B). The light chain mutants were paired with the parental chimeric heavy chain and heavy chain mutants were paired with parental chimeric light chain for expression analysis in CHO-E cells for 7 days. The resulting variants were evaluated for binding in ELISA experiments and compared to the parental chimeric IgG which has mouse variable region but human constant regions. For light chain variants, six point mutants VK-T25A, E27Q, N28S, N30S, K52S and T53Y depicted binding similar to chimeric IgG (+10% control; FIG. 3A) while for heavy chain […] point mutants VH-I28T, L30S, M34I, N35S, D56G, T58A, N61A, E62Q, M63K, K65Q and D66G depicted similar binding as chimeric IgG (+10% control; FIG. 3B).

human IL1RAP [3] = target: T1, human IL1RAP; assay: ELISA of point mutant IgG (light chain mutant with the parental chimeric heavy chain, CHO-E expression), one bar each, concentration not given
Excerpt: as §1

| Binder | binding result (human IL1RAP [2]) | binding result (human IL1RAP [3]) | also measured |
| --- | --- | --- | --- |
| B1 |  |  | IC90 IFN-gamma release (WB), IL-33 [1]: > 1000 nM; IC90 IL-8 release (NCI-H292), IL1-B [1]: > 1000 nM; IC90 IL-8 release (NCI-H292), IL-1A [1]: > 1000 nM; IC90 IL-8 release (NCI-H292), IL-33 [1]: 46 nM; IC90 IL-8 release (NCI-H292), IL-36G [1]: > 1000 nM; IC90 MIP-1B release (WB), IL1-B [1]: 125 nM; IC90 MIP-1B release (WB), IL-1A [1]: > 1000 nM; IC90 MIP-1B release (WB), IL-36G [1]: 43 nM; IC90 Nf-KB activation (HEK-Blue), IL1-B [1]: 56 nM; IC90 Nf-KB activation (HEK-Blue), IL-1A [1]: > 1000 nM; IC90 Nf-KB activation (HEK-Blue), IL-33 [1]: > 1000 nM; IC90 Nf-KB activation (HEK-Blue), IL-36G [1]: > 1000 nM |
| B2 | binds |  |  |
| B3 |  | binds |  |
| B4 | binds |  |  |
| B5 | binds |  |  |
| B6 | binds |  |  |
| B7 | binds |  |  |
| B8 |  | binds |  |
| B9 | no binding |  |  |
| B10 | binds |  |  |
| B11 |  | binds |  |
| B12 |  | binds |  |
| B13 |  | binds |  |
| B14 | binds |  |  |
| B15 |  | binds |  |
| B16 | binds |  |  |
| B17 | binds |  |  |
| B18 | binds |  |  |
| B19 | binds |  |  |
| B20 | binds |  |  |
| B21 |  | binds |  |
| B22 | binds |  |  |
| B23 |  | binds |  |
| B24 |  | binds |  |
| B25 |  | binds |  |
| B26 | binds |  |  |
| B27 |  | binds |  |
| B28 |  | binds |  |
| B29 | binds |  |  |
| B30 | binds |  |  |

Source: patent US20240317868A1 (Boehringer Ingelheim, published 2024)
